Assay results: the supplement of paper PMC9170038

These sequences were tested on K4 kissing-loop RNA reporter (assay: apparent KD of K4 kissing-loop reporter; higher = weaker reporter binding). Conditions: Eterna round: R107; input ligand: theophylline 20 uM.
Procedure: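 RNA-MaP round R107: designed RNA switches with theophylline, tryptophan, arginine or FMN aptamers are transcribed on-chip within common flanks. They are titrated with a labelled K4 kissing-loop RNA reporter in RNA-MaP buffer (100 mM Tris pH 7.5, 80 mM KCl, 4 mM MgCl2), without ligand or with the indicated ligand. Median apparent KD per design.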
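Further: bound reporter read as fluorescence of individual clusters on recovered sequencing chips by microscopy, with normalized cluster intensities fitted with a binding model.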

Point of comparison: “AAAAUUAUCUGAAGGAGCGUGAAAUAAUAUUAAACAUAACAACCCAGUGAUGUUGGGUUAUCACAGGUAGGUCGCAGAUGUAGAA [Same State Arginie B GF 25]”, “apparent KD of K4 kissing-loop reporter” value 115 nM. Against it:
- AAUAUAUAGUGAAGGAGCGCGAUAAGCAGUGAUGUUGCUUAGCUAUUAUUCAUUAUUUUUACGCAGGUAGGUCGCACUAUAUAUA [JR_ExcArginiB_Sub014] — within 1.5-fold, 133 nM
- AGUGAUGUUUUUUUUAAGAGUGAUGUUUUUCGAGGACCGGUACGGCCGCCACUCGAGUGAUGAGUGAGGUGUUGUGAUGUUUAGU [cxmullin] — 4.4-fold higher, 504 nM
- GCGCGGGAGUGAUGUUCCAAGUGGUGUUAACGAGGACCGGUACGGCCGCCACUCGUUACGGCCGGGCCGUAGGAUAAACUGGCGC [Same State - Tryptophan A (Freestyle 15)] — 4.7-fold higher, 544 nM
- AAGCAGUCUCUUGUAAUCAUCGAAGAUGAACGAGGACCGGUACGGCCGCCACUCGGAGUGAUGUUCCGAAGACUGCAAAAUAAAA [MatMod 16 - Jieux - Exclusion - Tryptophan A] — 7.6-fold higher, 873 nM
- UACAUUGCAGUCUUCUUCGUCCUAGAAGACUAGGAUAUCAGGAAACUGAGAAGGAGUCUCUGCAGUGAUGUUGCAGCUAGGACGA [[K]'-[F2]'-[F1]'-[F1]-[F2]-[K1]-[K2]-[F]''_Design1] — within 1.5-fold, 157 nM
- GGAGCAGGUGAAGGAUAUCCCGGGCCAGAGUGAUGUUCUGGAUCCCUUGCCGUGUCUAAACGGGUGGGAGAAGGUCACUGAUAAG [Erinxe] — 1.5-fold higher, 178 nM
- AAGUAGCUCUCGGCCGCCACUCCUCAGUGAUGUUGAGAUAUUAAGAGACAAUUGUCUCAUAUAAAGAGGACCGGGAGAGCUACAA [AK5 SS Tryptophan B] — 4-fold higher, 460 nM
- GCGCGGCAGGCGGCCGCCACUCUGACGAGCCACAGUGAUGUUGUGGUCGGAGUAACGUCUUCAUAGAGGACCGGGUUUGUUGUUC [Same State Typtophan A GF 26] — 2.5-fold higher, 290 nM
- ACUGAGCAUGCGGCCGCCACUUCAGAACGUCGCCCGGAGGGCGACGCCUCCGCAGUGAUGUUGCGGAGGACCGGGCAUGUUCAGA [Omei KL Tryp B Exc A v4] — within 1.5-fold, 77.9 nM
- AAGUGUGUGGCGGCCGCCACUAGAAUCCAGUGAUGUUGGAGAUAUCAGGUAACUGAUAUCCAACAUAGGACCGGGCCAUAUAGAA [Same State - Tryptophan B (Freestyle 11)] — within 1.5-fold, 108 nM

Same assay, conditions: Eterna round: R107; input ligand: tryptophan 2.4 mM

Point of comparison: “AGAAGGUCAAAGACCUUCGUGCACACUGAUACCAGUCGCGAAAGCGACCCUUGGCAGCAGGGCAGUGAUGUUGCCAAGUGCACAA [Omei KL Theo A SS A v2]”, “apparent KD of K4 kissing-loop reporter” value 235 nM. Against it:
- GGCAGUGAUGUUGCCUAAGCAACGCAUGCAGAGGAUAUUCGUUCGGGAAGAAGGCUGCAGCGUUCUCUCGUCAGUGAUGUUGGCG [Same State FMN A GF 24] — 2.1-fold lower, 114 nM
- GCAGCAAAUAAACGAGUGAUGUUCGACGAUACCAGCCUCGAUAGAGGCCCUUGGCAGCGUAAAUGAUCACAAAGCCAAGGGCUGC [#SwitchBubble 1] — 1.5-fold higher, 362 nM
- CUUGCCCUUUCGGCCGCCACUCCGAGUGAUGUUGGGAUGUUCGGUGCAGCCAUUUAGAUGUCAGUGAGGACCGGGAAAUUAUGCG [theeternabot_exclusion_KL_Trp_B_9] — within 1.5-fold, 196 nM
- CGAGUGAUGUUCGUUCUUUUAUUUUUUUGACAGGAUAUGCGGAAACGCAGAAGGGUCACCUUUGAGUUAAAAGAAUUUAAGUUAU [Ex FMN A 24] — the same, 235 nM
- UCGGACCCUGGAGGAUAUGAGUCUAGUGAUGUUAGGCGGUCCAUGCCGGUGCGGCGUUAUGCCCUUUUAGAAGGCCAGGGUCCGA [#2 Exclusion - FMN B Attempt #14 (HarryS)] — 2.1-fold lower, 112 nM
- GUAUUGUGCCUGGAUACCAGACACCCGAGUGAUGUUCGGAGCAGAGUGAUGUUCUAAUAAGUCCCUUGGCAGCCGGUCGCAGUCG [Same State Theophylline B gf 4] — 3.8-fold higher, 886 nM
- AUACGCGAUAGCGUAUAUAACAAAUCAGAAGGAGCGUGGAAGUACACAGGUAGGUCGCUGAAAAUAGGACUAGUGAUGUUAGUUA [JR_Nu_SSArginiA_Sub026] — within 1.5-fold, 166 nM
- AACUUUUAAUGAAUUACAUUUUAUUUAUCUCGAGGACCGGUACGGCCGCCACUCGUACUAUAGUGAUGUUAUAGAUAAGUCCUAA [JR_ExcTryptoA_Sub019] — 3.2-fold lower, 73.8 nM
- UCGGAUGUUCUGUCGAGAUGAGCAAUAGCACGAGGACCGGUACGGCCGCCACUCGACCCAGUGAUGUUGGGUGGCUAAGUUCAGC [Geragean] — 1.6-fold lower, 147 nM
- GCCGUACGCAUGGAUACCAGUCUUUCACGACUGGACAUGGAGUGAUGUUUCGUGAUGCUAGACCCUUGGCAGCCAUGCGUACGGC — within 1.5-fold, 210 nM
- UUAUCUAUAUUCGAUACCAGUACCCUUUGUGUUGAUCCUUUUAUCAGUGAUGUUGAUGUGUACCCUUGGCAGCGGGUAUGGGUUU [KL-XTheo-B16] — within 1.5-fold, 279 nM
- AGGUUUUGAUUAGGAUAUGCACUGAGGAGGAGAAUAUAGUGAUGUUAUAUAAUAGGAAUUAGUAGAGUAGAAGGGAUUGAGGUUU [SSFMNB.U] — 1.7-fold lower, 142 nM
- UUGUUUGGUUGAGAGGUUGGGCGAGAUGAUACCAGUAUAGUAGAGUACCCUUGGCAGCAUAGGAGAGAUAUAGUGAUGUUGUAUG [SSTheophA.U] — 1.6-fold higher, 381 nM
- GUCCUGAGUGAUGUUCGGGUCGUUCGGGAAGGAGCGCCCGCAAGGGCAGGUAGGUCGCCCGGAUCUCUCAGGUAACUGAGAGACC [#2 Same State - Arginine A Attempt #29 (HarryS)] — 1.6-fold higher, 383 nM
- UGACUGGACUGAAGGAGCGCGAAACUCCUAGUGAUGUUAGGAAAACGAGACAAAGUCUCGACGCAGGUAGGUCGCAGUCUAGUCU — 1.7-fold lower, 135 nM
- UCGACAGUGAACGAUACCAGCGUCACGUGGCUGGUGGUCACAUGAGUGAUGUUCAUGUAACGCCCUUGGCAGCGUGCACGUAUCC [KL-XTheo-B9] — within 1.5-fold, 199 nM
- GGGCGUGGCGCGGCCGCCACUGCGCCUGGGUGCUCGCUGAGUGAUGUUCGUCGGCGGUUGGGUGGUAGGACCGGGUGCUGGCCGG [BDazzled - #12 SS Tryptophan B] — 2-fold higher, 471 nM
- GGCCUGGUCGCCUAGUGAUUGUCGGUAGGACGAGGACCGGUACGGCCGCCACUCGGCUUACCCAGUGAUGUUGGGUAUCCGUGGC [Onercelama] — the same, 235 nM
- UGCACGGGCUCGGCCGCCACUCCAGCGGGUCGAAAGGUCCGCUACUGAGUGAUGUUCGGUUGGAGGAGGACCGGGAGCCCGUGCA [#2 Exclusion - Tryptophan B Attempt #28 (HarryS)] — 1.7-fold lower, 140 nM
- AGUGAUGUAUGGCGGUUGGUCACUUAGGAUCAGGAUAUAUAAACAAAUAGAAGGGAUGGCGGAGUGAUGUUCCGCCGGCCGCCAU [FMN A Exl V2] — within 1.5-fold, 170 nM
- UUUGGCCACAGAGAUACCAGUCAUAUCGCUCUGGAGUGAUGUUCCGGAACAUGCGGAGAAGACCCUUGGCAGCUCAUGACGGUAA [Exclusion Theophylline B GF 2] — within 1.5-fold, 254 nM
- GGGUCUGCUCGAAGGAGCGCCCUGACAGGUUGCUGCCGUGGGCAGUGAUGUUGCUCAGUCCGGCAGGUAGGUCGCGAGCAGACCC — 2.2-fold lower, 105 nM
- GGUCGAGUGAUGUUCGAUGUAAUGCAUUCAGAGGAUAUAGGAUUGGCUAGAAGGCUGAAUCGUUCUUCGAGUGAUGUUCGAGGAU [Same State FMN A GF 7] — within 1.5-fold, 183 nM
- UGGAGUUGACGAAAAGUCAACUCCUGAGAAGGAGCGGACGAAAGUCCAGGUAGGUCGCUCACUACCAGUGAUGUUGGUACUUUAA — within 1.5-fold, 222 nM
- ACAGAGGUAACCUGCAGUGAUGUUGCGGAUACCAGCUCACGAAACAGCCCUUGGCAGCCGCCGUCACUAACACGGUGGAUACAGU [theeternabot_exclusion_KL_Theo_A_49] — within 1.5-fold, 181 nM
- UGCAGUGAUGUUGCUAUUUUUCUUGAUUAACGAGGACCGGUACGGCCGCCACUCGAUUUCUCUCUAAUCCAGUAUGUUGUUUAAU [whbob_EX_Tryp_A_t4] — 2.7-fold lower, 86.1 nM
- CCUGAAUCAGUGAGUGAUGUUCACGUCGAUACCAGCUAGGAUACUAGCCCUUGGCAGCGACAAUUGCCAAGUGUGGCUAGUCAAA [Theo B SS t8] — 1.6-fold lower, 147 nM
- AGAACUGUCUGAGAUACCAGCCAGGAAGUGAUGUUUCCAGCUCGACGAAAGUCGAGCCAUGGCCCUUGGCAGCUCAGACAGUUCA [Omei KL Theo B SS A v4] — within 1.5-fold, 166 nM
- GGAGUUACCUGGGAUACCAGUCGGAGUCCGAGAGCUCGGAGUGAUGUUCUGGGAUGUUUCGGCCCUUGGCAGCUCUGGGACUCCC [#2 Exclusion - Theophylline B Attempt #10 (HarryS)] — within 1.5-fold, 198 nM
- ACGUAGUUCUAGGAUACCAGCCAAAUAGCCAGGACGAGAGUCCUGGCUGCCAGUGAUGUUGGCCCUUGGCAGCCUAGAACUACGA [Theo B Ex Mod Omei v10] — 1.6-fold lower, 146 nM
- GCAUCCUCUGCAGGAUAUCGCGGAGUGAUGUUCCGCGCAUGCCAUAGCGAAAGCUAUGGCAUGCGACGAGAAGGGCAGAGGAUGC — 1.7-fold lower, 138 nM
- AAUAUAUAGUGAAGGAGCGCGAUAAGCAGUGAUGUUGCUUAGCUAUUAUUCAUUAUUUUUACGCAGGUAGGUCGCACUAUAUAUA [JR_ExcArginiB_Sub014] — 1.7-fold lower, 139 nM
- AGUGAUGUUUUUUUUAAGAGUGAUGUUUUUCGAGGACCGGUACGGCCGCCACUCGAGUGAUGAGUGAGGUGUUGUGAUGUUUAGU [cxmullin] — within 1.5-fold, 248 nM
- GCGCGGGAGUGAUGUUCCAAGUGGUGUUAACGAGGACCGGUACGGCCGCCACUCGUUACGGCCGGGCCGUAGGAUAAACUGGCGC [Same State - Tryptophan A (Freestyle 15)] — 1.7-fold higher, 398 nM
- AAGCAGUCUCUUGUAAUCAUCGAAGAUGAACGAGGACCGGUACGGCCGCCACUCGGAGUGAUGUUCCGAAGACUGCAAAAUAAAA [MatMod 16 - Jieux - Exclusion - Tryptophan A] — within 1.5-fold, 219 nM
- UACAUUGCAGUCUUCUUCGUCCUAGAAGACUAGGAUAUCAGGAAACUGAGAAGGAGUCUCUGCAGUGAUGUUGCAGCUAGGACGA [[K]'-[F2]'-[F1]'-[F1]-[F2]-[K1]-[K2]-[F]''_Design1] — 1.9-fold lower, 126 nM
- GGAGCAGGUGAAGGAUAUCCCGGGCCAGAGUGAUGUUCUGGAUCCCUUGCCGUGUCUAAACGGGUGGGAGAAGGUCACUGAUAAG [Erinxe] — within 1.5-fold, 231 nM
- AAAAUUAUCUGAAGGAGCGUGAAAUAAUAUUAAACAUAACAACCCAGUGAUGUUGGGUUAUCACAGGUAGGUCGCAGAUGUAGAA [Same State Arginie B GF 25] — 2.6-fold lower, 90.8 nM
- AAGUAGCUCUCGGCCGCCACUCCUCAGUGAUGUUGAGAUAUUAAGAGACAAUUGUCUCAUAUAAAGAGGACCGGGAGAGCUACAA [AK5 SS Tryptophan B] — 1.8-fold lower, 133 nM
- GCGCGGCAGGCGGCCGCCACUCUGACGAGCCACAGUGAUGUUGUGGUCGGAGUAACGUCUUCAUAGAGGACCGGGUUUGUUGUUC [Same State Typtophan A GF 26] — within 1.5-fold, 230 nM
- ACUGAGCAUGCGGCCGCCACUUCAGAACGUCGCCCGGAGGGCGACGCCUCCGCAGUGAUGUUGCGGAGGACCGGGCAUGUUCAGA [Omei KL Tryp B Exc A v4] — 2.8-fold lower, 85.3 nM
- AAGUGUGUGGCGGCCGCCACUAGAAUCCAGUGAUGUUGGAGAUAUCAGGUAACUGAUAUCCAACAUAGGACCGGGCCAUAUAGAA [Same State - Tryptophan B (Freestyle 11)] — 2.6-fold lower, 91.9 nM
